US20160151452A1

What was measured:
EphB2-Fc [1] = experiment: SPR titration on immobilised EphB2-Fc, Langmuir 1:1 fit
EphB2-Fc [2] = experiment: SPR titration (0.05-100 nM) on immobilised EphB2-Fc, Langmuir 1:1 fit
EphB2-Fc [3] = experiment: SPR, 100 nM analyte over immobilised EphB2-Fc
[4] = target: EphB2 transiently expressed in DU145 cells; experiment: cell-based or functional assay
EphB2-Fc [5] = experiment: SPR competition on immobilised EphB2-Fc; competitor ephrinB2-Fc 246 nM preincubated with 0-1020 nM azurin
EphB2-Fc [6] = experiment: SPR competition on immobilised EphB2-Fc; competitor ephrinB2-Fc 246 nM
EphB2-Fc [7] = experiment: SPR, azurin immobilised on CM5 chip, 100 nM Eph-Fc injected
EphA6-Fc = experiment: as above
EphA6-Fc, sequence (Q9UF33 whole entry): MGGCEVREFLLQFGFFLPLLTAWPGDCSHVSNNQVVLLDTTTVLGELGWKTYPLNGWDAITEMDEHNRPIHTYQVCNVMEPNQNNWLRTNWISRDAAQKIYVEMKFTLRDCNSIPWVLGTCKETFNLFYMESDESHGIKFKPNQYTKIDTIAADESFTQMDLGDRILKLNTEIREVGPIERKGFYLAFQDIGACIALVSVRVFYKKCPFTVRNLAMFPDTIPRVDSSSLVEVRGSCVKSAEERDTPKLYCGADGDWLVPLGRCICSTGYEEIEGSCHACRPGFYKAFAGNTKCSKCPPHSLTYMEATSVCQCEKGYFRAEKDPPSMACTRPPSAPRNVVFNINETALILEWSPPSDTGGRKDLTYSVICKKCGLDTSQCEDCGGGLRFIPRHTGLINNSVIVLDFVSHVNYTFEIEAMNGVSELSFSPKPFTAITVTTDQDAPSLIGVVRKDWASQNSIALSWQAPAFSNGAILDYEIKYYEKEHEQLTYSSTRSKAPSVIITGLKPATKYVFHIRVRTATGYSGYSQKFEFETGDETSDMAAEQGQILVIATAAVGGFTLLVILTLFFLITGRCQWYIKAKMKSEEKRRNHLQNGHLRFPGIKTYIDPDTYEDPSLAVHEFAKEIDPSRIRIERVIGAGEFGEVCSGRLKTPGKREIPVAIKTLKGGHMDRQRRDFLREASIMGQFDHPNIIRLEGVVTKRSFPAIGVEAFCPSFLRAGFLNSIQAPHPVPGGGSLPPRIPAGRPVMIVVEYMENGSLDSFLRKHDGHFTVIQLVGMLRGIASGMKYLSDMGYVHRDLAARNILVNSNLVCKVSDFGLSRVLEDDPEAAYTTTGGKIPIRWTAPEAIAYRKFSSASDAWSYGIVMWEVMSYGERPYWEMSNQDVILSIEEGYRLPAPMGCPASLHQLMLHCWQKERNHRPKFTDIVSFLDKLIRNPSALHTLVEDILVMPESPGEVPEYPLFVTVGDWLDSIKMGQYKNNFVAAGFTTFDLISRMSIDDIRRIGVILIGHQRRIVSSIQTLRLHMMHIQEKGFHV

EphB2-Fc [8] = experiment: SPR competition on immobilised EphB2-Fc; competitor ephrinB2-Fc 246 nM preincubated with 0-1020 nM GST-Azu 88-113

azurin from Pseudomonas aeruginosa, sequence (P00282 21-148 limits assumed): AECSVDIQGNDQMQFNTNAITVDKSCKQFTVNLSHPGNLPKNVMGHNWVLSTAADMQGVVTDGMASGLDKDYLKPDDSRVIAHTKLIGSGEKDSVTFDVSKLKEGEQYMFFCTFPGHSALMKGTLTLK
GST-Azu 88-113, sequence (P08515 1-218, tags or fused parts left off): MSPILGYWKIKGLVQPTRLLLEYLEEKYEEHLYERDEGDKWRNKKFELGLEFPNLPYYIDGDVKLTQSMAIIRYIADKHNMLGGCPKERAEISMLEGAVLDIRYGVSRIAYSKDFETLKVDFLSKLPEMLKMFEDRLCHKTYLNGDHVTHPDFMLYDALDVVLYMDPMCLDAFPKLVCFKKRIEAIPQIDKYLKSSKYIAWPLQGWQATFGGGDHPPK
ephrinB2-Fc (Fc fusion), sequence (P52800 29-232): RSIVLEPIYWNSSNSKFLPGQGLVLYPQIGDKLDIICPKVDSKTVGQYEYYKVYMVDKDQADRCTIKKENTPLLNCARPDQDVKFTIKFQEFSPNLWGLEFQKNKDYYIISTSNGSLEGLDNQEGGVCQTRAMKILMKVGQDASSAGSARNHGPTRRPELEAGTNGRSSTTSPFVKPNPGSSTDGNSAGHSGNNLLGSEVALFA
EphB2-Fc, sequence (P54763 19-543): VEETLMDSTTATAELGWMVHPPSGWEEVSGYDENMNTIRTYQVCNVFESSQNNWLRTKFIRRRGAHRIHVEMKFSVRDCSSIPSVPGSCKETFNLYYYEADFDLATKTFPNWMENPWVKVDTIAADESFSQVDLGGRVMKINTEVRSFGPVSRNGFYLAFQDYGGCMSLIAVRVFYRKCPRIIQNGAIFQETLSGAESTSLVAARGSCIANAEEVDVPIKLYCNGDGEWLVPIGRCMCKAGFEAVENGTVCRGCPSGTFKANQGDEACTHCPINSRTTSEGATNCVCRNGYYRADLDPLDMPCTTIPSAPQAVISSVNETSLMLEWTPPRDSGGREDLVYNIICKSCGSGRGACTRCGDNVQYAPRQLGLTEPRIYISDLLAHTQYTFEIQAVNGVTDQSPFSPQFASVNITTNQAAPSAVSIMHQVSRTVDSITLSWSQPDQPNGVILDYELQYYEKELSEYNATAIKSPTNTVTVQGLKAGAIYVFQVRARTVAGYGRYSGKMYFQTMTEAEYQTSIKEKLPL
glutathione S-transferase (GST), sequence (P08515 whole entry): as the sequence (P08515 1-218, tags or fused parts left off) above
GST-Azu 36-89, sequence (P08515 1-218, tags or fused parts left off): as above

Row | Substance | Kd (EphB2-Fc [1]) [nM] | Kd (EphB2-Fc [2]) [nM] | Req in RU (EphB2-Fc [3]) [RU] | level at which the inhibition levels off (EphB2-Fc [6]) [%] | further results
1 | ephrinB2-Fc (Fc fusion) | 30 | 30 | 159 |  | 
2 | glutathione S-transferase (GST) (from UniProt P08515 1-218) (enzyme) | > 160 |  | 14 |  | 
3 | azurin from Pseudomonas aeruginosa (from UniProt P00282 21-148) |  | 6 | 427 | 40 to 50 | lower level of tyrosine phosphorylation with azurin plus ephrinB2 than with ephrinB2 alone [4]: 30 to 40%; reduction of total protein binding to the surface (EphB2-Fc [5]): < 60%; Req (saturating resonance) (EphB2-Fc [7]): 1250 RU; Req (saturating resonance) (EphA6-Fc): 1200 RU
4 | GST-Azu 36-89 (from UniProt P08515 1-218) |  |  | 57 |  | 
5 | GST-Azu 88-113 (from UniProt P08515 1-218) |  |  |  | 40 to 50 | decrease in phosphotyrosine level on cotreatment with ephrinB2 (lane 11 against lane 8) [4]: 21%; decrease in phosphotyrosine level on cotreatment with ephrinB2 (lane 12 against lane 9) [4]: 42%; decrease in phosphotyrosine level on cotreatment with ephrinB2 (lane 13 against lane 10) [4]: 45%; reduction of total protein binding to the surface (EphB2-Fc [8]): < 60%
